Experimental data from patent publication US20070014791A1, “Rage-related methods and copositions for treating glomerular injury” (priority 2003, published 2007).

B1: sRAGE: murine soluble RAGE, the extracellular ligand binding domain of RAGE (protein, UniProt Q62151 23-340, looked up)
extracellular domain: GQNITARIGEPLVLSCKGAPKKPPQQLEWKLNTGRTEAWKVLSPQGGPWDSVARILPNGSLLLPATGIVDEGTFRCRATNRRGKEVKSNYRVRVYQIPGKPEIVDPASELTASVPNKVGTCVSEGSYPAGTLSWHLDGKLLIPDGKETLVKEETRRHPETGLFTLRSELTVIPTQGGTHPTFSCSFSLGLPRRRPLNTAPIQLRVREPGPPEGIQLLVEPEGGIVAPGGTVTLTCAISAQPPPQVHWIKDGAPLPLAPSPVLLLPEVGHEDEGTYSCVATHPSHGPQESPPVSIRVTETGDEGPAEGSVGESGLGTLA
modifications: extracellular domain

Legend:
male BALB/c mice = conditions: ADR 10.5 mg/kg IV, up to 6 weeks; cited from earlier work
[1] = system: male BALB/c mice treated with adriamycin (ADR); experiment: ADR-induced glomerular injury in BALB/c mice: kidney weight and mesangial morphometry (PAS staining); assay type: in vivo, mouse; conditions: for kidney weight/body weight ratio: sRAGE 100 μg per day once daily, vs. PBS-treated mice; for mesangial area / mesangial/glomerular area: sRAGE 100 μg per day, compared with PBS treatment, PAS staining
Description: (§1) Male BALB/c mice at the age of six weeks received one intravenous dose of adriamycin (ADR), 10.5 mg/kg. Immediately after injection of ADR, mice received once daily administration of murine soluble RAGE, the extracellular ligand binding domain of RAGE, 100 μg per day, beginning immediately at the time of ADR treatment, and continued until the day of sacrifice.
Dissected kidneys were fixed in buffered formalin (10%) overnight and then routinely processed for light microscopy. Fixed paraffin-embedded tissues were cut (3 μm thick) and mounted on slides coated with 3-aminopropyltriethoxy silane (Sigma) followed by incubation at 37° C. overnight. Light microscopic views after staining with periodic acid Schiff (PAS) were scanned into a computer and the quantification of areas of mesangial matrix and glomerulus was performed using a Zeiss microscope and image analysis system (MediaCybernetics). To calculate mesangial area, only nuclei-free regions were included. Forty glomeruli from each animal were selected at random on the stained sections (20 from the outer region and 20 from the inner region). Morphometry was performed by investigators blinded to the experimental protocol.
To address the concept that RAGE may be involved in the pathogenesis of ADR-mediated FSGS, a single injection of ADR, 10.5 mg/kg, to male BALB/c mice at age 6 weeks was administered. ADR-treated mice received once daily administration of murine soluble RAGE, the extracellular ligand binding domain of RAGE, 100 μg per day, beginning immediately at the time of ADR treatment, and continued until the day of sacrifice. Other ADR-treated mice received vehicle, PBS.

[2] = system: male BALB/c mice treated with adriamycin (ADR); experiment: ADR-induced albuminuria in BALB/c mice: 24 hr urine albumin/creatinine; assay type: in vivo, mouse; conditions: sRAGE 100 μg per day, mean±SE
Description: as §1
Twenty-four hour urine collection was obtained from each animal using metabolic cages. Urine albumin and creatinine were determined using Albuwell M and creatinine assays from Exocell (Philadelphia, Pa.) according to the manufacturer's instructions.
The key test of these concepts was the degree to which blockade of RAGE would suppress the development of albuminuria. Mice were placed in metabolic cages and 24 hr urine collected. Urine levels of albumin and creatinine were determined; results are reported as μg albumin/μg creatinine. […] At six weeks, the results were similarly striking.

| Molecule | mice that developed hematuria (male BALB/c mice) | mice that developed leukocyturia (male BALB/c mice) | kidney weight/body weight ratio ([1]; 2 weeks after ADR 10.5 mg/kg) | mesangial area ([1]; 2 weeks after ADR) | mesangial/glomerular area ([1]; 2 weeks after ADR) | kidney weight/body weight ratio ([1]; 6 weeks after ADR 10.5 mg/kg) | mesangial area ([1]; 6 weeks after ADR) | mesangial/glomerular area ([1]; 6 weeks after ADR) | urine albumin/creatinine ([2]; 2 weeks after ADR, p<0.05 vs. PBS-treated mice receiving ADR (809.55±365.85)) | urine albumin/creatinine ([2]; 6 weeks after ADR, p<0.01 vs PBS/ADR (1,362.96±987.97)) |
| --- | --- | --- | --- | --- | --- | --- | --- | --- | --- | --- |
| COc1cccc2c1C(=O)c1c(O)c3c(c(O)c1C2=O)C[C@@](O)(C(=O)CO)C[C@@H]3O[C@H]1C[C@H](N)[C@H](O)[C@H](C)O1 [ADR, adriamycin] | 35.7% | 53.6% | – | – | – | – | – | – | – | – |
| B1 | – | – | significantly decreased | significantly decreased | significantly decreased | significantly decreased | significantly decreased | significantly decreased | 191.08±49.93 μg albumin/μg creatinine | 249.76±283.19 μg albumin/μg creatinine |
